B1: BLC: novel CXC chemokine; baculovirus-expressed mouse BLC (SEQ ID NO:2), mature protein starting at isoleucine 22 (protein)
chain: MRLSTATLLLLLASCLSPGHGILEAHYTNLKCRCSGVISTVVGLNIIDRIQVTPPGNGCPKTEVVIWTKMKKVICVNPRAKWLQRLLRHVQSKSLSSTPQAPVSKRRAA

Assays:
B cells = test: Transwell chemotaxis of spleen B cells; type: cell-based, mouse
Description: (§1) FIGS. 1(a)-(g). Chemotactic activity of BLC on leukocyte subtypes. Results are expressed as the percentage of input cells of each subtype migrating to the lower chamber of a Transwell filter. FIG. 1a show migration of B cells; FIG. 1b, CD4+T cells; FIG. 1c, CD8+T cells; FIG. 1d; granulocytes; and FIG. 1e, monocytes/macrophages to BLC. Positive controls are SDF1a (FIGS. 1a, b, c, e) and IL8 (FIG. 1d). […] BLC was added to the upper or lower chamber of the apparatus as indicated. […] Data points with error bars represent the mean 1 s.d. for triplicates; individual data points are shown for duplicates. Each experiment was performed a minimum of two times.
(§2) To test this possibility, chemotaxis assays were performed with lymphocytes from mouse spleen and baculovirus-expressed BLC estimated to bc greater than 95% pure by silver staining. […] An alternative possibility is that high potency is not rcquired for a chemokine that is expressed constitutively within lymphoid tissues.
(§3) Chemotaxis. Lymphocytes and macrophages were obtained from spleens of C57BL/6 mice. For macrophage chemotaxis, B cells were depleted by passage over a MACS column (Milteny Biotec, Auburn, Calif.) after incubation with biotinylated anti-B220 antibodies and streptavidin-coated magnetic beads. Granulocytes were obtained from mouse bone marrow suspensions. Mouse BLR1 transfected Jurkat cells were obtained by transfection with pREP4 containing the mouse BLR1 coding region (16), isolated by RT-PCR from mouse spleen RNA, and an amino terminal prolactin leader sequence and FLAG epitope (23). Positive clones were identified using the anti-FLAG antibody M1 (Kodak). Chemotaxis assays were performed as previously described (15) and subsets of migrating cells were identified by flow cytometry using antibodies specific for B220, CD4, CD8 (Pharmingen, San Diego, Calif.) and Mac-1 (Caltag, South San Francisco, Calif.). Granulocytes were identified by their characteristic large side scatter profile. In some experiments, cells were preincubated with 100 ng/ml pertussis toxin (List Biol. Labs, Campbell, Calif.) for 2 hrs at 37° C. IL-8 (R&D Systems, Minneapolis, Minn.) and synthetic human SDF1 a (N33A) synthesized by native chemical ligation (Gryphon Sciences, South San Francisco) were used as positive controls. SDF1a (N33A) has identical activity to native human and mouse SDF1a (24, 25).

BLR1 [1] = test: Calcium flux in BLR1 transfected 300-19 pre-B cells; type: cell-based, mouse; conditions: FIG. 2e
Source text: (§4) FIG. 2(a)-(f). BLR1-mediated calcium mobilization and chemotaxis in response to BLC. HEK 293 cells, stably transfected with the indicated chemokine receptors (FIGS. 2a-d), were loaded with the calcium probe Indo-1 and assayed by spectrofluorimetry for changes in intracellular calcium in response to BLC. FIG. 2a, Calcium flux as a function of BLC concentration (nM). FIG. 2b, Specificity of the response of BLR1 to BLC. FIG. 2c, Lack of response to BLC in CCR1-transfected cells. FIG. 2d, Lack of response to BLC in CXCR2-transfected cells. FIG. 2e, Percentage of maximal calcium flux as a function of BLC concentration in BLR1-transfected 300-19 cells. FIG. 2f, Chemotactic response of BLR1-transfected Jurkat cells to BLC. Results of chemotaxis are expressed as in FIG. 1.
(§5) We therefore tested whether BLC could signal through BLR1. […] Using BLR1 transfected 300-19 pre-B cells a more complete dose response curve was obtained showing that the response to BLC is saturable (FIG. 2e). […] We next tested the ability of BLC to stimulate chemotaxis through BLR1.
(§6) Calcium fluorimetry on transfected 293 and 300-19 cells. Native mouse BLR1 was subcloned into pBK-CMV (Stratagene) and used to transfect HEK 293 cells and 300-19 pre-B cells. […] Intracellular calcium concentrations were calculated using the Hitachi 4500 Intracellular Cation Measurement program.

BLR1- negative cells = test: Chemotaxis of BLR1-negative Jurkat cells; type: cell-based
Description: as §5
as §3, with “In some experiments, cells were preincubated with 100 ng/ml pertussis toxin (List Biol. Labs, Campbell, Calif.) for 2 hrs at 37° C. IL-8 (R&D Systems, Minneapolis, Minn.) and synthetic human SDF1 a (N33A) synthesized by native chemical ligation (Gryphon Sciences, South San Francisco) were used as positive controls. SDF1a (N33A) has identical activity to native human and mouse SDF1a (24, 25).” left out

[2] = test system: spleen monocytes/macrophages; test: Transwell chemotaxis of spleen monocytes/macrophages; type: cell-based, mouse; conditions: FIG. 1e
Description: as §1, §2
(§7) Chemotaxis. Lymphocytes and macrophages were obtained from spleens of C57BL/6 mice. For macrophage chemotaxis, B cells were depleted by passage over a MACS column (Milteny Biotec, Auburn, Calif.) after incubation with biotinylated anti-B220 antibodies and streptavidin-coated magnetic beads. Granulocytes were obtained from mouse bone marrow suspensions. […]

CXCR2 = test: Calcium flux in 293 cells transfected with CXCR2; type: cell-based; conditions: 293 cells transfected with CXCR2, FIG. 2d
Source text: as §4, §5, §6

Control transfectants = test: Calcium flux in control transfectants of 293 and 300-19 cells; type: cell-based; conditions: control transfectants of either cell line (293, 300-19)
Description: as §5
(§8) Calcium fluorimetry on transfected 293 and 300-19 cells. Native mouse BLR1 was subcloned into pBK-CMV (Stratagene) and used to transfect HEK 293 cells and 300-19 pre-B cells. G418-resistant clones were tested for BLR1 expression using an affinity purified rabbit anti-mouse antiserum that is specific for the BLR1 amino terminus. HEK293 cells expressing CCR1, CCR2 and CXCR2 were from the Cardiovascular Research Institute, UCSF. Ca2+-mobilization studies were performed as described (26) using a Hitachi 4500 spectrometer. Intracellular calcium concentrations were calculated using the Hitachi 4500 Intracellular Cation Measurement program.

CCR2 = test: Calcium flux in 293 cells transfected with CCR2; type: cell-based
Description: as §5, §8

BLR1 [3] = test: Chemotaxis of BLR1 transfected Jurkat T cells; type: cell-based, mouse; conditions: Jurkat T cells transfected with BLR1
Source text: as §4, §5, §7

CCR1 = test: Calcium flux in 293 cells transfected with CCR1; type: cell-based; conditions: 293 cells transfected with CCR1, FIG. 2c
Source text: as §4, §5, §6

CD4 and CD8 T cells = test: Transwell chemotaxis of spleen CD4 and CD8 T cells; type: cell-based; conditions: mouse spleen lymphocytes, FIG. 1b, c
Description: as §1, §2, §7

granulocytes = test: Transwell chemotaxis of bone marrow granulocytes; type: cell-based, mouse; conditions: FIG. 1d
Description: as §1, §2, §7

mouse BLR1 = test: Calcium flux in HEK 293 cells stably transfected with mouse BLR1; type: cell-based; conditions: HEK 293 cells stably transfected with mouse BLR1, FIG. 2a, b
Source text: as §4, §5, §6

Row | Molecule | BLC-induced migration of pertussis toxin pretreated B cells (B cells; preincubated with 100 ng/ml pertussis toxin for 2 hrs at 37° C., FIG. 1g) | calcium flux dose response (BLR1 [1]) | chemotactic response (BLR1- negative cells) | chemotactic activity for spleen monocytes/macrophages [2] | calcium flux (CXCR2) | calcium flux response (Control transfectants) | potency as a B cell attractant (B cells; baculovirus expressed protein, compared with most chemokines) | migration of cells in the absence of a gradient (B cells; cells incubated with BLC in the absence of a gradient, FIG. 1f) | chemotactic response in B cells (B cells; mouse spleen lymphocytes, FIG. 1a) | calcium flux (CCR2) | chemotactic response (BLR1 [3]) | calcium flux (CCR1) | chemotactic activity towards CD4 and CD8 T cells (CD4 and CD8 T cells) | chemotactic activity towards granulocytes (granulocytes) | calcium flux (mouse BLR1)
1 | pertussis toxin [reference compound] | failed to migrate | – | – | – | – | – | – | – | – | – | – | – | – | – | –
2 | B1 | – | saturable | failed to respond | weak but reproducible chemotactic activity | failed to stimulate a calcium flux | did not respond | potency less than that of most chemokines | failed to migrate | strong chemotactic response | failed to stimulate a calcium flux | showed a chemotactic response | failed to stimulate a calcium flux | limited activity | no chemotactic activity | dose dependent calcium flux

From patent US6110695A, “Modulating the interaction of the chemokine, B Lymphocyte Hemoattractant, and its Receptor, BLR1” (The Regents of the University of California, priority 1997, dated 2000)
